Results: patent publication US20140187743A1, “SURFACE-ACTIVE COLLAGEN MEMBRANE BY PEPTIDE” (priority 2011, published 2014)
Where “and” joins values, the source holds several entries; their conditions need not be identical. Identical values can stand only once. Where no end group is shown, it is not given here. The star is where a group is joined. FITC = O=C1OC2(c3ccc(O)cc3Oc3cc(O)ccc32)c2ccc(NC(=S)*)cc21

Tests used:
[1] = system: circular skull defect of rabbits; assay: In vivo bone regeneration of peptide-bound collagen membrane in circular skull defect; set-up: species or system New Zealand white rabbits; conditions: 8 mm circular skull defect, 4 weeks after transplantation; compared to membranes with SEQ ID NO: 1 or 9
Excerpt: In still another example of the present invention, in order to examine the in vivo bone regeneration ability of the fusion peptide that binds to the collagen membrane and has the ability to regenerate bone tissue, each of the peptides of SEQ ID NOS: 1, 9 and 24 was bound to the collagen membrane, and then transplanted into the circular skull defect of rabbits, and the bone regeneration ability was examined. Specifically, a circular bone defect having a diameter of 8 mm was formed in the skull of anesthetized rabbits and covered with the collagen membrane, and the periosteum and the skin were doubly sutured. At 4 weeks after the transplantation, the animal was sacrificed, and the collected sample was fixed in a formalin solution. The tissue was embedded to prepare a sample having a thickness of 20 μm. The sample was stained with fuchsin and toluidine blue to prepare a nondemineralized sample. […] Each of the peptides of SEQ ID NOS: 1, 9 and 24, prepared in Example 1, was bound to a collagen membrane according to the method of Example 2, and then transplanted into the circular skull defect of rabbits, and the bone regeneration ability was examined. […]

[2] = system: collagen membrane; assay: Peptide release (elution) test from collagen membrane in PBS, HPLC; assay type: binding, porcine; conditions: for Release of the peptide from collagen membrane: eluate in PBS at 37° C.
Method: In still another example of the present invention, in order to examine the collagen-binding ability of the fusion peptide that binds specifically to collagen, porcine sink-derived collagen was dissolved in 0.1M HCl at a concentration of 1%(w/v), the pH was neutralized, and the collagen solution was concentrated to 4% by evaporating the solvent. To prepare a membrane, the concentrated collagen solution was poured into a […] diameter dish and mixed, and to prepare a three-dimensional scaffold, the collagen solution was poured onto a 24-well plate for cell culture and mixed. Next, 1% glutaraldehyde or 1% glyceraldehyde was added to crosslink the collagen solution, which was then washed with distilled water and freeze-dried. The resulting membrane having a size of 1×1 cm and a thickness of 250 μm was wet with 10 mg of the fusion peptide of SEQ ID NO: 24 in 100 μl of DW, washed with PBS and freeze-dried. The collagen membrane having the peptide bound thereto was added to PBS and subjected to a peptide release teat at 37° C. After 7 days, 10 ml of the elution solvent added was completely removed, after which 10 ml of a fresh elution solvent was added to the collagen membrane which was then eluted at 37° C. for 4 weeks. After completion of the elution, the membrane was collected and the peptide content thereof was measured.
1 g of porcine skin-derived collagen was dissolved in 100 ml of 0.1M HCl at a concentration of 1%(w/v), and then the pH of the collagen solution was neutralized, and the solvent was evaporated to the collagen solution to 4%.
In order to prepare a membrane, 8 ml of the concentrated collagen solution was poured in a […]-diameter dish and mixed, and in order to prepare a three-dimensional scaffold, 1 ml of the collagen solution was poured in a 24-well plate for cell culture and mixed. Then, 1% glutaraldehyde or 1% glyceraldehydes was added to crosslink the collagen solution, and the crosslinked collagen was washed with distilled water and freeze-dried (see FIG. 1).
0.038 g of the prepared membrane having a size of 1×1 cm and a thickness of 250 μm fall was wet with 10 mg of the fusion peptide of SEQ ID NO: 24 in 100 μl of deionized water (DW), allowed to stand at 4° C. for 8 hours, washed with PBS, and freeze-dried. The collagen membrane having the peptide bound thereto was added to 10 ml of PBS and subjected to a peptide release test at 37° C.
After 7 days, 10 ml of the elution solvent added was completely removed, and then 10 ml of a fresh elution solvent was added to the collagen membrane which was then eluted at 37° C. for 4 weeks. After completion of the elution, the membrane was collected and the peptide content thereof was measured.
0.038 g of the membrane having the peptide bound thereto was precisely weighed, and 5 ml of mobile phase solvent A was added thereto, followed by sonication for 1 hour. Next, 5 ml of mobile phase solvent B was added to and mixed with the membrane solution, and then the mixture was centrifuged at 4500 rpm for 30 minutes. 1 ml of the supernatant was taken and filtered through a 0.22 millipore filter to obtain a sample solution.
A peptide standard was dried in a desiccator (silica gel) for 5 hours, and about 10 mg of the dried peptide was dissolved in mobile phase solvent A. 10 ml of the solution was used as a standard solution. […]

[3] = system: E. coli; assay: Antibacterial test by agar diffusion method, inhibition diameter of peptide-bound collagen membrane; assay type: cell-based; conditions: for Antibacterial activity (inhibition diameter) of peptide-bound collagen membrane: incubated for 3 days on E. coli plate
Method: In another example of the present invention, in order to examine the antibacterial activity of an antibacterial fusion peptide that binds specifically to collagen, a collagen membrane was prepared using each of the peptides of SEQ ID NO: 1, the peptide of SEQ ID NO: 26 and the peptide of SEQ ID NO: 29 in the same manner as described in Example 2. The prepared collagen membrane was washed in PBS for 1 hour and dried in air. To evaluate the antibacterial activity of the peptide, an antibacterial test was performed according to an agar diffusion method. Specifically, E. coli cells were cultured in TSB medium until the absorbance at 620 nm reached 1, and then the cells were harvested and used in the test. The harvested cells were diluted with PBS, and 10^5-10^7 bacterial cells per ml were plated on a TSA plate and incubated at 37° C for 24 hours. On the plate having the incubated bacterial cells thereon, a collagen membrane having each of the peptides of SEQ ID NOS: 1, 26 and 29 bound thereto was placed and incubated for 3 days. Then, the inhibition diameter against the growth of the bacterial cells was measured. […] Using each of the peptides of SEQ ID NOS: 1, 26 and 29, collagen membranes were prepared in the same manner as described in Example 2. Each of the prepared collagen membranes was allowed to stand in 10 ml of PBS for 1 hour and dried in air. To evaluate the antibacterial activity of the peptides, an antibacterial test was performed according to the agar diffusion method. Specifically, E. coli cells were cultured in TSB (tryptic soy broth) medium until the absorbance at 620 nm reached 1, and then the cells were harvested and used in the test. The harvested cells were diluted with PBS, and 10^5-10^7 bacterial cells per ml were plated on a TSA plate and incubated at 37° C. for 24 hours. On the plate having the incubated bacterial cells thereon, a collagen membrane having each of the peptides of SEQ ID NOS: 1, 26 and 29 bound thereto was placed and incubated for 3 days, and then the inhibition diameter against the bacterial cells was inhibited was measured.

[4] = rabbit, in vivo
Excerpt: In still another example of the present invention, in order to examine the in vivo stability of the fusion peptide that binds to collagen and has the ability to regenerate bone tissue, the peptide of SEQ ID NO: 24 labeled with FITC was bound to the collagen membrane which was then transplanted into a rabbit skull defect. […] Before and at days 1, 3, 7, 14, 21 and 28 after the membrane bound to the peptide of SEQ ID NO: 24 labeled with FITC was transplanted into the rabbit skull defect, the blood was collected and whether the peptide was released into the systemic blood was measured using a fluorometer. […] The peptide of SEQ ID NO: 24 labeled with FITC was bound to a collagen membrane in the same manner as described in Example 2. The collagen membrane was transplanted into the skull defect of a rabbit, and after 4 weeks, the membrane transplanted into the skull defect was observed by confocal microscopy (Olympus, Japan). Before and at days 1, 3, 7, 14, 21 and 28 after 10 mg of the peptide of SEQ ID NO: 24 labeled with FITC was transplanted into the rabbit skull defect, the blood was collected and whether the peptide was released into the systemic blood was measured using a fluorometer.

[5] = biological target: collagen membrane prepared from porcine skin-derived collagen (porcine); assay: release test in PBS at 37 C, HPLC of the eluate
[6] = biological target: collagen membrane prepared from porcine skin-derived collagen (porcine); assay: HPLC of peptide extracted from the membrane after 4 weeks of elution in PBS at 37 C
[7] = after washing in PBS for 1 hour

Chain of collagen membrane prepared from porcine skin-derived collagen (porcine) (P12675 whole entry): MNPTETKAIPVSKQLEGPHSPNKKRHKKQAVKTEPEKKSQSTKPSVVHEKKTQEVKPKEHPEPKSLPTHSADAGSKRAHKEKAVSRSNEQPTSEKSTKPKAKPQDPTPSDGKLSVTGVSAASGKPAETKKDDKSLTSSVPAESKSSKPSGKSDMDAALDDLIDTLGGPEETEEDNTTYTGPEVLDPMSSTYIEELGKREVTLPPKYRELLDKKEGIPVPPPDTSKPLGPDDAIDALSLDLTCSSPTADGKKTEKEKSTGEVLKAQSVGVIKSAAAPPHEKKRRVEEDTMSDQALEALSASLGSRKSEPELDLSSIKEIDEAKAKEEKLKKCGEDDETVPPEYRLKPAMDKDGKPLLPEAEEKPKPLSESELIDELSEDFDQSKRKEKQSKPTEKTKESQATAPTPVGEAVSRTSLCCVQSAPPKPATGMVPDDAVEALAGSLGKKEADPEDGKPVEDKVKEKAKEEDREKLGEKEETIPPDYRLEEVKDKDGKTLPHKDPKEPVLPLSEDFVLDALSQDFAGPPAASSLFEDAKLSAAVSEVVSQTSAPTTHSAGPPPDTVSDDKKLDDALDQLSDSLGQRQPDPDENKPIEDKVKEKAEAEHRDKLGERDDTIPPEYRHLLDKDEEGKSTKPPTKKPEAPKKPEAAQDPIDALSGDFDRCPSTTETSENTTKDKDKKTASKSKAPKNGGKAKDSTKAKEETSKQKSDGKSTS

GLRSKSKKFRRPDIQYPDARHPLYVDFSDVGWNDWIVA (Collagen Binding Peptide) [SEQ ID NO: 24]
Bone regeneration ability of the collagen membrane having the peptide bound [1]: increased | Peak of the peptide in the eluate ([2]; 4 week elution test, retention time of 13 minutes, Lot Nos. 1, 2 and 3): not observed | Content of the peptide remaining on collagen membrane ([2]; after completion of the 4 week elution at 37° C., Lot Nos. 1-3, 10 mg peptide loaded): 9.2 mg and 9.43 mg and 9.68 mg and 9.20 mg | Release of the peptide from collagen membrane ([2]; day 7, Lot Nos. 1-3, 10 mg peptide loaded): 0 mg | Release of the peptide from collagen membrane ([2]; day 14, Lot Nos. 1-3, 10 mg peptide loaded): 0 mg | Release of the peptide from collagen membrane ([2]; day 28, Lot Nos. 1-3, 10 mg peptide loaded): 0 mg

GLRSKSKKFRRPDIQYPDAGKCSTRGRKCCRRKK (Collagen Binding Peptide; hBD3-3) [SEQ ID NO: 29]
Antibacterial activity (inhibition diameter) of peptide-bound collagen membrane [3, 7]: maintained its antibacterial activity

SEQ ID NO: 24 labeled with FITC: FITC (fluorescein isothiocyanate) bound to the N-terminus of the peptide of SEQ ID NO: 24 ({FITC}-GLRSKSKKFRRPDIQYPDARHPLYVDFSDVGWNDWIVA)
Spread of the peptide to the surrounding tissue (confocal microscopy) [4]: did not spread to the surrounding tissue

GKCSTRGRKCCRRKK (hBD3-3) [SEQ ID NO: 26, antibacterial peptide derived from human beta-defensin-3]
Decrease of antibacterial activity after washing ([3]; after washing in PBS for 1 hour versus before washing): about 50% | Antibacterial activity (inhibition diameter) of peptide-bound collagen membrane ([3]; before washing): highest antibacterial activity

GLRSKSKKFRRPDIQYPDA (Collagen Binding Peptide) [SEQ ID NO: 1]
Antibacterial activity (inhibition diameter) of peptide-bound collagen membrane [3, 7]: no antibacterial activity | Antibacterial activity (inhibition diameter) of peptide-bound collagen membrane ([3]; before washing): no antibacterial activity

B1: fusion peptide of SEQ ID NO: 24 (fusion peptide for bone tissue regeneration that binds specifically to collagen) (peptide)
peptide: GLRSKSKKFRRPDIQYPDARHPLYVDFSDVGWNDWIVA
peptide released from collagen membrane [5]: 0 mg | content of the peptide remaining on collagen membrane (of 10 mg applied) [6]: 9.2 mg and 9.43 mg and 9.68 mg
